Reference: paper PMC11964227, “Critical functions and key interactions mediated by the RNase E scaffolding domain in Pseudomonas aeruginosa” (PLOS Genetics, 2025)

T1: His10Smt3-tagged PNPase (P. aeruginosa, UniProt Q9HV59 1-701)
T1 construct: Polyribonucleotide phosphorylase (PNPase), P. aeruginosa, pnp; also called His10-Smt3-PNPase; source: soluble bacterial lysates, purified (nickel-agarose)
T1 sequence (looked up): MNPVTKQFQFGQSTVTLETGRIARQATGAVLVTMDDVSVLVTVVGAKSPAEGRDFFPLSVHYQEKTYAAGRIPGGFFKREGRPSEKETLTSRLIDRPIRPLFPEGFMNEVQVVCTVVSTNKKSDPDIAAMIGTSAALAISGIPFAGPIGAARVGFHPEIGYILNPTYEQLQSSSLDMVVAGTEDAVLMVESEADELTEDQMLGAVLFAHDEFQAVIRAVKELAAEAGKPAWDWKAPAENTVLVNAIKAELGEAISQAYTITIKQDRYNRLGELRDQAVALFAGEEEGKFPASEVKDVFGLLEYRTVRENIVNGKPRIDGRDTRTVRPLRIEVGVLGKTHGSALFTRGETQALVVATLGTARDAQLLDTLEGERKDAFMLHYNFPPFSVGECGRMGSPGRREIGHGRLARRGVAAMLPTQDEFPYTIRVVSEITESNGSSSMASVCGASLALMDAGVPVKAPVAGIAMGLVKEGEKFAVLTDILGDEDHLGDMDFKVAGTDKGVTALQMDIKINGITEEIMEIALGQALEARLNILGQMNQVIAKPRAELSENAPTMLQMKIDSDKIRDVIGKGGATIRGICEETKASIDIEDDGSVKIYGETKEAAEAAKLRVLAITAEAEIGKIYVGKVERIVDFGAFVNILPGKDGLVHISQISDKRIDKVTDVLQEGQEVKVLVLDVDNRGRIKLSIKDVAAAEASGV


Legend:
[1] = molecular target: T1, His10Smt3-tagged PNPase; experiment: pull-down; purified Flag-tagged RNase E proteins (20-25 µg) immobilised on anti-Flag M2 magnetic beads, 5 µg of PNPase or RhlB in 100 µL buffer H (50 mM Tris-HCl pH 8.0, 150 mM NaCl, 0.01% Triton X-100), 1 hour at 4 °C; SDS-PAGE, Coomassie Blue; details: both partners purified
[2] = molecular target: T2, T18-RNase E^1-1057 (P. aeruginosa, UniProt Q9HZM8 1-1057); experiment: two-hybrid; adenylate-cyclase-based bacterial two-hybrid in E. coli BTH101 (T18 and T25 fusions); MacConkey agar with maltose and IPTG, 30°C then room temperature; β-galactosidase activity with ONPG; details: partners not purified
T2 construct: source: bacterial two-hybrid fusion (pUT18C), E. coli BTH101

| Binder | binding result [1] | fold increase of β-galactosidase activity compared to empty vector controls [2] [fold] |
| --- | --- | --- |
| Flag-RNase E^572-1057 (domain or fragment, P. aeruginosa, UniProt Q9HZM8 572-1057, looked up, The results call the C-terminal tag 3xFlag, the methods Twin-Strep-Flag; also called RNase E CTD with no MTS; source: soluble bacterial lysates, purified (nickel-agarose, 250 mM imidazole fraction); not shown: His10-Smt3, N-terminal, kept; Twin-Strep-Flag, C-terminal, kept) AAKPAETSKPAAERQTRQDERRNGRQQNRRRDGRDGNRRDEERKPREERAERQPREERAERPNREERSERRREERAERPAREERQPREGREERAERTPREERQPREGREGREERSERRREERAERPAREERQPREGREERAERPAREERQPREDRQARDAAALEAEALPNDESLEQDEQDDTDGERPRRRSRGQRRRSNRRERQREVSGELEGSEATDNAAAPLNTVAAAAAAGIAVASEAVEANVEQAPATTSEAASETTASDETDASTSEAVETQGADSEANTGETADIEAPVTVSVVRDEADQSTLLVAQATEEAPFASESVESREDAESAVQPATEAAEEVAAPVPVEVAAPSEPAATEEPTPAIAAVPANATGRALNDPREKRRLQREAERLAREAAAAAEAAAQAAPAVEEIPAVASEEASAQEEPAAPQAEEITQADVPSQADEAQEAVQAEPEASGEGAADTEHAKKTEESETSRPHA | binds |  |
| T25-PNPase (enzyme, P. aeruginosa, UniProt Q9HV59 1-701, looked up, Polyribonucleotide phosphorylase (PNPase), P. aeruginosa, pnp; source: bacterial two-hybrid fusion (pKT25), E. coli BTH101) MNPVTKQFQFGQSTVTLETGRIARQATGAVLVTMDDVSVLVTVVGAKSPAEGRDFFPLSVHYQEKTYAAGRIPGGFFKREGRPSEKETLTSRLIDRPIRPLFPEGFMNEVQVVCTVVSTNKKSDPDIAAMIGTSAALAISGIPFAGPIGAARVGFHPEIGYILNPTYEQLQSSSLDMVVAGTEDAVLMVESEADELTEDQMLGAVLFAHDEFQAVIRAVKELAAEAGKPAWDWKAPAENTVLVNAIKAELGEAISQAYTITIKQDRYNRLGELRDQAVALFAGEEEGKFPASEVKDVFGLLEYRTVRENIVNGKPRIDGRDTRTVRPLRIEVGVLGKTHGSALFTRGETQALVVATLGTARDAQLLDTLEGERKDAFMLHYNFPPFSVGECGRMGSPGRREIGHGRLARRGVAAMLPTQDEFPYTIRVVSEITESNGSSSMASVCGASLALMDAGVPVKAPVAGIAMGLVKEGEKFAVLTDILGDEDHLGDMDFKVAGTDKGVTALQMDIKINGITEEIMEIALGQALEARLNILGQMNQVIAKPRAELSENAPTMLQMKIDSDKIRDVIGKGGATIRGICEETKASIDIEDDGSVKIYGETKEAAEAAKLRVLAITAEAEIGKIYVGKVERIVDFGAFVNILPGKDGLVHISQISDKRIDKVTDVLQEGQEVKVLVLDVDNRGRIKLSIKDVAAAEASGV |  | 11 |
| T25-RhlB (enzyme, P. aeruginosa, UniProt Q9HXE5 1-397, looked up, RNA helicase RhlB, P. aeruginosa; source: bacterial two-hybrid fusion (pKT25), E. coli BTH101) MVEPQEGKTRFHDFNLAPSLMHAIHDLGFPYCTPIQAQVLGFTLRGQDAIGRAQTGTGKTAAFLISIITQLLQTPPPKERYMGEPRALIIAPTRELVVQIAKDAAALTKYTGLNVMTFVGGMDFDKQLKQLEARFCDILVATPGRLLDFNQRGEVHLDMVEVMVLDEADRMLDMGFIPQVRQIIRQTPHKGERQTLLFSATFTDDVMNLAKQWTVDPAIVEIEPENVASDTVEQHVYAVAGSDKYKLLYNLVAQNNWERVMVFANRKDEVRRIEERLTKDGISAAQMSGDVPQHKRIRTLEGFREGKIRVLVATDVAGRGIHIDGISHVINFTLPEDPDDYVHRIGRTGRAGASGTSISFAGEDDAFALPPIEELLGRKITCEMPPAELLKPVPRKH |  | 5 |
